The record followed here is US20260347476 (published 2026).

Broadly, the Kd is the concentration at which binding is half-saturated. A higher Kd goes with weaker binding.

The target of assay [1] is T1, PD-1 (human, UniProt Q15116). As to the kind of experiment: SPR, protein A capture.
In assay [2] the target is T1, PD-1. Put plainly: SPR, PD1 surface. (In SPR one partner is held on a chip, and binding of the other changes the refractive index at the surface.)
The target of assay [3] is T1, PD-1. As to the kind of experiment: SPR, anti-human Fc capture, additional production.
For assay [4], the target named is T1, PD-1. Put plainly: SPR, protein A capture. This is another data set of the same source.
Assay [5] has as its target T2, IL-15 (human, UniProt P40933). Put plainly: SPR, anti-human Fc capture.
For assay [6], the target named is T2, IL-15. Put plainly: SPR, PD1 capture.
The target in assay [7] is T2, IL-15. Put plainly: SPR, anti-human Fc capture, additional production.
The target of assay [8] is T2, IL-15. Put plainly: SPR, PD1 capture, additional production.
Assay [9] concerns the target T3, IL-15Rbetagamma heterodimer (human, UniProt P14784).
T3 chain 1: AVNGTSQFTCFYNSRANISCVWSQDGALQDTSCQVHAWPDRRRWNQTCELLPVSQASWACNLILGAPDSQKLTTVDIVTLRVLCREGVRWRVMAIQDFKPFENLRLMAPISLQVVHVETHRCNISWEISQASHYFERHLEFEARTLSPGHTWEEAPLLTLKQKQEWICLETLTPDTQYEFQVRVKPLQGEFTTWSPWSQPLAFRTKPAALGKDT
T3 chain 2: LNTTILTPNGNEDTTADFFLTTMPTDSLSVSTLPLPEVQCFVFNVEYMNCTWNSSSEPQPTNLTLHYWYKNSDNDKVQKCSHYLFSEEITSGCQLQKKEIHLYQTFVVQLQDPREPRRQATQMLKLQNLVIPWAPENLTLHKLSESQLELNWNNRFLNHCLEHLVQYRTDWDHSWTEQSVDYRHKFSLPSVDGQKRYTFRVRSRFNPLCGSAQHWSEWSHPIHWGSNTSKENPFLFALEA
As to the kind of experiment: SPR, anti-human Fc capture.

Assay [10] deals with T3, IL-15Rbetagamma heterodimer. As to the kind of experiment: SPR, PD1 capture.
Assay [11] shares this target. As to the kind of experiment: SPR, anti-human Fc capture, IL-15 and PD1 bound.
For assay [12] the target is unchanged. As to the kind of experiment: SPR, PD1 capture, additional production.

T2 sequence (P40933 49-162): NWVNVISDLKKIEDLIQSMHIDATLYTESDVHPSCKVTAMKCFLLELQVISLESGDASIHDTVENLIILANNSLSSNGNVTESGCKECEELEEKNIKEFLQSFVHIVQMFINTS
T1 sequence (Q15116 25-167): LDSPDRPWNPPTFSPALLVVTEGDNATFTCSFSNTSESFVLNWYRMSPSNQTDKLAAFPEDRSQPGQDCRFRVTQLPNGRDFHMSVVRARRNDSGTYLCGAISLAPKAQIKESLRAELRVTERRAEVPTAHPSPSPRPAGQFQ

B1: RV20 PD-1 arm (antibody, V domains shown)
VH: QVQLVQSGVEVKKPGASVKVSCKASGYTFTNYYMYWVRQAPGQCLEWMGGINPSNGGTNFNEKFKNRVTLTTDSSTTTAYMELKSLQFDDTAVYYCARRDYRFDMGFDYWGQGTTVTVSS
VL: EIVLTQSPATLSLSPGERATLSCRASKGVSTSGYSYLHWYQQKPGQAPRLLIYLASYLESGVPARFSGSGSGTDFTLTISSLEPEDFAVYYCQHSRDLPLTFGCGTKVEIK
As for B1, the values for the Kd with PD-1 [1], in the assay with PD-1 [2] and with PD-1 [3] were 269 nM, 17.2 nM and 3.99 nM, respectively.

B2: RV26 PD-1 arm (antibody, V domains shown)
VH: QVQLVQSGVEVKKPGASVKVSCKASGYTFTNYYMYWVRQAPGQCLEWMGGINPSNGGTNFNEKFKNRVTLTTDSSTTTAYMELKSLQFDDTAVYYCARRDYRFDMGFDYWGQGTTVTVSS
VL: EIVLTQSPATLSLSPGERATLSCRASKGVSTSGYSYLHWYQQKPGQAPRLLIYLASYLESGVPARFSGSGSGTDFTLTISSLEPEDFAVYYCQHSRDLPLTFGCGTKVEIK
In turn, B2 displayed a Kd in the assay with PD-1 [2] of 2.19 nM.

B3: RV19 PD-1 arm (antibody, V domains shown)
VH: QVQLVQSGVEVKKPGASVKVSCKASGYTFTNYYMYWVRQAPGQCLEWMGGINPSNGGTNFNEKFKNRVTLTTDSSTTTAYMELKSLQFDDTAVYYCARRDYRFDMGFDYWGQGTTVTVSS
VL: EIVLTQSPATLSLSPGERATLSCRASKGVSTSGYSYLHWYQQKPGQAPRLLIYLASYLESGVPARFSGSGSGTDFTLTISSLEPEDFAVYYCQHSRDLPLTFGCGTKVEI
Turning to B3, the binding result with PD-1 [4] is recorded as “no binding”.

B4: RV30 IL-15 arm (antibody, V domains shown)
VH: QVQLVQSGAEVKKPGASVKVSCKASGYSFSSFGISWVRQAPGQGLEWLGWISAFNGYTKYAQKFQDRVTMTTDTSTSTAYMELRSLRSDDTAVYYCARDPAAWPLQQSLAWFDPWGQGTMVTVSS
VL: QSVLTQPPSASGTPGQRVTISCSGSTSNLKRNYVYWYQQLPGTAPKLLIYRDRRRPSGVPDRFSGSKSGTSASLAISGLRSEDEADYYCAWYDRELSEWVFGGGTKLTVL
Consider B4, for which the Kd in the assay with IL-15 [5] was 0.077 nM; with IL-15 [6], 0.452 nM; in the assay with IL-15 [7], 0.0664 nM; with IL-15 [8], 0.85 nM.

B5: RV36 IL-15 arm (antibody, V domains shown)
VH: QVQLVQSGAEVKKPGASVKVSCKASGYSFSSFGISWVRQAPGQGLEWLGWISAFNGYTKYAQKFQDRVTMTTDTSTSTAYMELRSLRSDDTAVYYCARDPAAWPLQQSLAWFDPWGQGTMVTVSS
VL: QSVLTQPPSASGTPGQRVTISCSGSTSNLKRNYVYWYQQLPGTAPKLLIYRDRRRPSGVPDRFSGSKSGTSASLAISGLRSEDEADYYCAWYDRELSEWVFGGGTKLTVL
Regarding B5, the Kd in the assay with IL-15 [5] is 0.116 nM; in the assay with IL-15 [6] it was 0.111 nM.

B6: RV37:IL-15 complex (antibody)
chain 1: QVQLVQSGAEVKKPGASVKVSCKASGYSFSSFGISWVRQAPGQGLEWLGWISAFNGYTKYAQKFQDRVTMTTDTSTSTAYMELRSLRSDDTAVYYCARDPAAWPLQQSLAWFDPWGQGTMVTVSS
chain 2: QSVLTQPPSASGTPGQRVTISCSGSTSNLKRNYVYWYQQLPGTAPKLLIYRDRRRPSGVPDRFSGSKSGTSASLAISGLRSEDEADYYCAWYDRELSEWVFGGGTKLTVL
chain 3: not shown
As for B6, the values for the equilibrium dissociation constant (Kd) in [9], in assay [10] and in [11] were 0.986 nM, 0.693 nM and 0.848 nM, respectively.

B7: RV20 IL-15 arm (antibody, V domains shown)
VH: QVQLVQSGAEVKKPGASVKVSCKASGYSFSSFGISWVRQAPGQGLEWLGWISAFNGYTKYAQKFQDRVTMTTDTSTSTAYMELRSLRSDDTAVYYCARDPAAWPLQQSLAWFDPWGQGTMVTVSS
VL: QSVLTQPPSASGTPGQRVTISCSGSTSNLKRNYVYWYQQLPGTAPKLLIYRDRRRPSGVPDRFSGSKSGTSASLAISGLRSEDEADYYCAWYDRELSEWVFGGGTKLTVL
In the case of B7, the Kd was 0.0519 nM with IL-15 [5], 0.0531 nM with IL-15 [7] and 0.169 nM with IL-15 [8].

B8: RV20:IL-15 complex (antibody)
chain 1: QVQLVQSGAEVKKPGASVKVSCKASGYSFSSFGISWVRQAPGQGLEWLGWISAFNGYTKYAQKFQDRVTMTTDTSTSTAYMELRSLRSDDTAVYYCARDPAAWPLQQSLAWFDPWGQGTMVTVSS
chain 2: QSVLTQPPSASGTPGQRVTISCSGSTSNLKRNYVYWYQQLPGTAPKLLIYRDRRRPSGVPDRFSGSKSGTSASLAISGLRSEDEADYYCAWYDRELSEWVFGGGTKLTVL
chain 3: not shown
Regarding B8, the equilibrium dissociation constant (Kd) in assay [9] amounted to 0.852 nM; in [10] it was 0.667 nM; in assay [12], 0.726 nM.

B9: RV32 IL-15 arm (antibody, V domains shown)
VH: QVQLVQSGAEVKKPGASVKVSCKASGYSFSSFGISWVRQAPGQGLEWLGWISAFNGYTKYAQKFQDRVTMTTDTSTSTAYMELRSLRSDDTAVYYCARDPAAWPLQQSLAWFDPWGQGTMVTVSS
VL: QSVLTQPPSASGTPGQRVTISCSGSTSNLKRNYVYWYQQLPGTAPKLLIYRDRRRPSGVPDRFSGSKSGTSASLAISGLRSEDEADYYCAWYDRELSEWVFGGGTKLTVL
Consider B9, for which the dissociation constant (Kd) worked out at 0.108 nM with IL-15 [5] and 0.352 nM in the assay with IL-15 [6].

B10: RV30:IL-15 complex (antibody)
chain 1: QVQLVQSGAEVKKPGASVKVSCKASGYSFSSFGISWVRQAPGQGLEWLGWISAFNGYTKYAQKFQDRVTMTTDTSTSTAYMELRSLRSDDTAVYYCARDPAAWPLQQSLAWFDPWGQGTMVTVSS
chain 2: QSVLTQPPSASGTPGQRVTISCSGSTSNLKRNYVYWYQQLPGTAPKLLIYRDRRRPSGVPDRFSGSKSGTSASLAISGLRSEDEADYYCAWYDRELSEWVFGGGTKLTVL
chain 3: not shown
B10: the Kd is 0.849 nM in [9], 0.828 nM in assay [10], 0.706 nM in assay [11] and 0.665 nM in [12].

B11: RV31 IL-15 arm (antibody, V domains shown)
VH: QVQLVQSGAEVKKPGASVKVSCKASGYSFSSFGISWVRQAPGQGLEWLGWISAFNGYTKYAQKFQDRVTMTTDTSTSTAYMELRSLRSDDTAVYYCARDPAAWPLQQSLAWFDPWGQGTMVTVSS
VL: QSVLTQPPSASGTPGQRVTISCSGSTSNLKRNYVYWYQQLPGTAPKLLIYRDRRRPSGVPDRFSGSKSGTSASLAISGLRSEDEADYYCAWYDRELSEWVFGGGTKLTVL
With B11, the Kd with IL-15 [5] stood at 0.18 nM; in the assay with IL-15 [6], 0.717 nM.
